Legend:
[1] = target: T1, human factor D (human, UniProt P00746 26-253); assay: SPR Biacore T200, Fab captured by anti-huFab, human fD injected, 25 C
T1 construct: also called fD
Procedure: Antibody Fab fragments were immobilized on a Series S CM5 sensor chip using the anti-huFab capture kit (GE healthcare Cat. #28-9583-25) following a protocol described by the manufacturer. Kinetics of binding were calculated from sensorgrams recorded for injection of 60 μL aliquots of solutions of human factor D varied in concentration from 0.39 nM to 25 nM in 2-fold increments. The flow rate was 30 μL/minute, the running buffer was HBS-P+, the temperature of analysis was 25° C., real-time reference cell subtraction was employed, and dissociation following factor D injection was followed for 10 minutes. After subtraction of the sensorgram observed for injection of running buffer, data were analyzed according to a 1:1 model using BiaEval software v4.1 (GE Healthcare) to extract the kinetics and affinity constants.

[2] = target: T1, human factor D; assay: cell-based or functional assay
[3] = target: T1, human factor D; assay: SPR total binding to fD over time; Fab 100 mg/mL in PBS, 37 C, 10 weeks (FIG. 2B)
[4] = target: T1, human factor D; assay: cell-based or functional assay; remark: listed apart in the source
[5] = target: T1, human factor D; assay: cell-based or functional assay; remark: listed apart in the source
[6] = target: T1, human factor D; assay: SPR total binding to fD over time; Fab 10 mg/mL in pH 5.5 buffer (FIG. 2A), one month

T1 sequence (P00746 26-253 limits assumed): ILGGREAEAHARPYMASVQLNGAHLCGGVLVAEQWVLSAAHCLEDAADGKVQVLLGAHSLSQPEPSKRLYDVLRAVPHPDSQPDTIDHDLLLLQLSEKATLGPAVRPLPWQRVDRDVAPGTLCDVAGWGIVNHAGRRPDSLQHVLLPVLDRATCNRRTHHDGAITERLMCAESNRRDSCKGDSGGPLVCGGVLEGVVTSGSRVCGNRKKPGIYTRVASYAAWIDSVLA

Kd [1] [pM] | Binder | also measured
280 | AFD.v5 (VL-D28S:D31S:D32S) (Fab, V domains shown, Fab variant of aFD.WT) VH: EVQLVQSGPELKKPGASVKVSCKASGYTFTNYGMNWVRQAPGQGLEWMGWINTYTGETTYADDFKGRFVFSLDTSVSTAYLQISSLKAEDTAVYYCEREGGVNNWGQGTLVTVSS VL: DIQVTQSPSSLSASVGDRVTITCITSTSIDSSMNWYQQKPGKVPKLLISGGNTLRPGVPSRFSGSGSGTDFTLTISSLQPEDVATYYCLQSDSLPYTFGQGTKVEIKR | –
25.6 | AFD.v14 (SIESD.N103S; VL-D28S:D30E:D31S VH-D62E VH-N103S) (Fab, V domains shown, Fab; also called SIESD.N103S (AFD.v14); AFD.14) VH: EVQLVQSGPELKKPGASVKVSCKASGYTFTNYGMNWVRQAPGQGLEWMGWINTYTGETTYAEDFKGRFVFSLDTSVSTAYLQISSLKAEDTAVYYCEREGGVSNWGQGTLVTVSS VL: DIQVTQSPSSLSASVGDRVTITCITSTSIESDMNWYQQKPGKVPKLLISGGNTLRPGVPSRFSGSGSGTDFTLTISSLQPEDVATYYCLQSDSLPYTFGQGTKVEIKR | Average IC50 fB Activation (pM), TR-FRET, 50 pM fD [2]: 34 pM; loss in binding [3]: 10%; IC50 (nM) AP Hemolysis (rabbit erythrocytes, C1q-depleted human serum) [4]: 4.1 nM; Average IC50 fB Activation (pM), TR-FRET, 125 pM fD [5]: 87 pM
≤ 10 | AFD.v2 (VL-D30E) (Fab, V domains shown, Fab variant of aFD.WT; also called D30E (AFD.v2)) VH: EVQLVQSGPELKKPGASVKVSCKASGYTFTNYGMNWVRQAPGQGLEWMGWINTYTGETTYADDFKGRFVFSLDTSVSTAYLQISSLKAEDTAVYYCEREGGVNNWGQGTLVTVSS VL: DIQVTQSPSSLSASVGDRVTITCITSTDIEDDMNWYQQKPGKVPKLLISGGNTLRPGVPSRFSGSGSGTDFTLTISSLQPEDVATYYCLQSDSLPYTFGQGTKVEIKR | loss in binding [3]: ~20%; loss in binding [6]: ~40%
30 | AFD.v9 (VL-D28S:D30E:D31S VH-D62E VL-N34S) (Fab, V domains shown, Fab variant of aFD.WT; also called SIESD + VL-N34S) VH: EVQLVQSGPELKKPGASVKVSCKASGYTFTNYGMNWVRQAPGQGLEWMGWINTYTGETTYAEDFKGRFVFSLDTSVSTAYLQISSLKAEDTAVYYCEREGGVNNWGQGTLVTVSS VL: DIQVTQSPSSLSASVGDRVTITCITSTSIESDMSWYQQKPGKVPKLLISGGNTLRPGVPSRFSGSGSGTDFTLTISSLQPEDVATYYCLQSDSLPYTFGQGTKVEIKR | –
70 | AFD.v11 (VL-D28S:D30E:D31S VH-D62E VH-N52S) (Fab, V domains shown, Fab variant of aFD.WT; also called SIESD + VH-N52S) VH: EVQLVQSGPELKKPGASVKVSCKASGYTFTNYGMNWVRQAPGQGLEWMGWISTYTGETTYAEDFKGRFVFSLDTSVSTAYLQISSLKAEDTAVYYCEREGGVNNWGQGTLVTVSS VL: DIQVTQSPSSLSASVGDRVTITCITSTSIESDMNWYQQKPGKVPKLLISGGNTLRPGVPSRFSGSGSGTDFTLTISSLQPEDVATYYCLQSDSLPYTFGQGTKVEIKR | –
≤ 10 | AFD.v3 (VL-D31S) (Fab, V domains shown, Fab variant of aFD.WT) VH: EVQLVQSGPELKKPGASVKVSCKASGYTFTNYGMNWVRQAPGQGLEWMGWINTYTGETTYADDFKGRFVFSLDTSVSTAYLQISSLKAEDTAVYYCEREGGVNNWGQGTLVTVSS VL: DIQVTQSPSSLSASVGDRVTITCITSTDIDSDMNWYQQKPGKVPKLLISGGNTLRPGVPSRFSGSGSGTDFTLTISSLQPEDVATYYCLQSDSLPYTFGQGTKVEIKR | –
60 | AFD.v13 (SIESD.N103Q; VL-D28S:D30E:D31S VH-D62E VH-N103Q) (Fab, V domains shown, Fab variant of aFD.WT) VH: EVQLVQSGPELKKPGASVKVSCKASGYTFTNYGMNWVRQAPGQGLEWMGWINTYTGETTYAEDFKGRFVFSLDTSVSTAYLQISSLKAEDTAVYYCEREGGVQNWGQGTLVTVSS VL: DIQVTQSPSSLSASVGDRVTITCITSTSIESDMNWYQQKPGKVPKLLISGGNTLRPGVPSRFSGSGSGTDFTLTISSLQPEDVATYYCLQSDSLPYTFGQGTKVEIKR | –
26 | AFD.v4 (VL-D32S) (Fab, V domains shown, Fab variant of aFD.WT) VH: EVQLVQSGPELKKPGASVKVSCKASGYTFTNYGMNWVRQAPGQGLEWMGWINTYTGETTYADDFKGRFVFSLDTSVSTAYLQISSLKAEDTAVYYCEREGGVNNWGQGTLVTVSS VL: DIQVTQSPSSLSASVGDRVTITCITSTDIDDSMNWYQQKPGKVPKLLISGGNTLRPGVPSRFSGSGSGTDFTLTISSLQPEDVATYYCLQSDSLPYTFGQGTKVEIKR | –
70 | AFD.v10 (SIESD.D92E; VL-D28S:D30E:D31S VH-D62E VL-D92E) (Fab, V domains shown, Fab variant of aFD.WT) VH: EVQLVQSGPELKKPGASVKVSCKASGYTFTNYGMNWVRQAPGQGLEWMGWINTYTGETTYAEDFKGRFVFSLDTSVSTAYLQISSLKAEDTAVYYCEREGGVNNWGQGTLVTVSS VL: DIQVTQSPSSLSASVGDRVTITCITSTSIESDMNWYQQKPGKVPKLLISGGNTLRPGVPSRFSGSGSGTDFTLTISSLQPEDVATYYCLQSESLPYTFGQGTKVEIKR | –

From patent US20170143843A1 (Genentech, published 2017)
